Data set [1] concerns the molecule itself. Briefly: small-angle X-ray scattering (SAXS).
The data set “crystal structure” deals with the molecule itself. The experiment in a line: crystal structure.

The results in this text go back to article PMC4498786, “Dimerization-Induced Allosteric Changes of the Oxyanion-Hole Loop Activate the Pseudorabies Virus Assemblin pUL26N, a Herpesvirus Serine Protease” (PLoS Pathogens, 2015).

B1: pseudorabies virus (PrV) assemblin pUL26N, protease domain of pUL26, residues 1-224 (enzyme)
chain: MGPVYVSGYLALYDRDGGELALTREIVAAALPPAGPLPINIDHRPRCDIGAVLAVVDDDRGPFFLGVVNCPQLGAVLARAVGPDFFGDMRLSDEERLLYLLSNYLPSASLSSRRLAPGEAPDETLFAHVALCVIGRRVGTIVVYDASPEAAVAPFRQLSARARSELLARAAESPDRERVWHMSEEALTRALLSTAVNNMLLRDRWELVAARRREAGVRGHTYLQ
notes: also called PrV protease; VP24
In the case of B1, the “stoichiometry N” value in data set [1] was determined as 2.

B2: diisopropyl fluorophosphate-inhibited pseudorabies virus (PrV) assemblin pUL26N, residues 1-224 (enzyme)
chain: B1 chain
For B2, the “stoichiometry N” value in “crystal structure” amounted to 2.
